The nanobody polyreactivity screen of Harvey et al. (2022)

assay: yeast display, Sf9 membrane polyspecificity reagent, FACS + sequencing; frameworks hold sequencing errors
Method in brief: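 After 36–48 hours of galactose induction, yeast (Saccharomyces cerevisiae BJ5465) displaying a synthetic nanobody library were stained at 4 °C for 1 hour with 10% biotinylated, detergent-solubilized Sf9 membrane reagent. Streptavidin microbeads enriched the stained cells before FACS sorting into low and high (top ~1%) gates on anti-HA and streptavidin fluorescence. Each clone's polyreactivity label reflects its gate of origin.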

Question: For “QVQLVESGGGLVQAGGSLRLSCAASGSTFYIYAIGLYRQAPGKERELVAAINWRTGSTYYADSVMGRFTISRDNAKNTVYLQMNSLKPEDTAVYYWNAYTQHWSYWGQGTQVTVSS”, which “polyreactivity (PSR sort gate)” value is on record?
Answer: high polyreactivity

Question: For “QVQLVESGGGLVQAGGSLRLSCAASGSTFYIYAMGAYRPAPGKERELVARISGSGGSTYYADSVKGRFTISRDNAKNTGYLQMNSLKPEDTAVYYCAADDIYKYYQYYAFPYYRYVYWGHGTQVTVSS”, which “polyreactivity (PSR sort gate)” value is on record?
Answer: low polyreactivity

Question: Which “polyreactivity (PSR sort gate)” value does the source give for “QVQLVESGGGLVQAGGSLRLSCAASGSTFYIYAMGWYRQAPGKEREFVAAISRTGGSTYYADSVKGRFTISRDNAKNTVYLQMNSLKPEDTAVYYCAAEYKGFRGRYDYWGQGTQVTVSS” here?
Answer: high polyreactivity

Question: With “QVQLVESGGGLVQAGGSLRLSCAASGSTFYIYAMGWYRQAPGKERELVADITWSGGSTYYADSVKGRFTISRDNAKNTVYLQMNSLKPEDTAVYYCATDSWFGLEYWGQCTQVTVSS” as the sequence, how does the “polyreactivity (PSR sort gate)” value read?
Answer: high polyreactivity

Question: Which “polyreactivity (PSR sort gate)” value does the source give for “QVQLVESGGGLVQAGGSLRLSCAASGSTFYIYAMGWYRQAPGKERELVARISGSGGSTYYADSVKGRFTISRDNAKNTVYLQMNSLKPEDTAVYYCAADDIYKYYQYYAFPYYRYDYWGQGSQVTVSS” here?
Answer: low polyreactivity

Question: Which “polyreactivity (PSR sort gate)” value does the source give for “QVQLVESGGGLVQAGGSLRLSCAASGSTFYIYAMGWYRQAPGKERELVARISGSGGSTYYSDSVKGRFTISRDNSKNTVYLQMNSLKPEVTAVYYCAADDIYKYYQYYAFPYYRYDYWGQGTQVTVSS” here?
Answer: low polyreactivity

Question: For “QVQLVESGGGLVQAGGSLRLSCAASGSTFYIYAMGWYRQAPGKERELVATITRAGTTNYADSVKGRFTISRDNAMNTVYLQMNSLKPEETAVYYCAKRKFRWPYQGSYSYIPFGYCGQGTQVTVSS”, which “polyreactivity (PSR sort gate)” value is on record?
Answer: high polyreactivity

Question: Which “polyreactivity (PSR sort gate)” value does the source give for “QVQLVESGGGLVQAGGSLRLSCAASGSTFYKNAMGWYRQAPGKERELVAAINQSGTRTYYADSVKGRFTISRDNAKNTVYLQMNSLKPEDTAVYYCAAGRGPYYRSRTPLYYWGQGTQVTVSS” here?
Answer: high polyreactivity

Question: Which “polyreactivity (PSR sort gate)” value does the source give for “QVQLVESGGGLVQAGGSLRLSCAASGSTFYKNAMGWYRQAPGKERELVAGISRRGGRTYYADSVKGRFTISRDNAKNTVYLQMNSLKPEDTAVYYCNTGHEEDEYDYWGQGTQVTVSS” here?
Answer: low polyreactivity

Question: With “QVQLVESGGGLVQAGGSLRLSCAASGSTFYKYAMGWYRQATGKERELVASTYADSVKGRFTISRDNAKNTVYLQMNSLKPEDTAVYYCAKDTASGPYDYWGQGTQVTVSS” as the sequence, how does the “polyreactivity (PSR sort gate)” value read?
Answer: low polyreactivity

Question: For “QVQLVESGGGLVQAGGSLRLSCAASGSTFYKYGMGWYRPAPGKERELVAAISGSGDSTYYADSVKGRFTISRDNAKNTVYLQMNSLKPEDTAVYYCNAGPWWYLHEYDYWGQGTQVTVSS”, which “polyreactivity (PSR sort gate)” value is on record?
Answer: low polyreactivity

Question: Which “polyreactivity (PSR sort gate)” value does the source give for “QVQLVESGGGLVQAGGSLRLSCAASGSTFYLNAMGWYRKAHGKERELVAPINGSGGSTYADSVKGRFTISRDNAKNTVYLQLHSLKPEDTAVYYCAADGTGYPGDSYPGMDYDYWGQVTQVTVSS” here?
Answer: low polyreactivity

Question: For “QVQLVESGGGLVQAGGSLRLSCAASGSTFYLNAMGWYRQAPGKERELVAAINGSGGSTYADSVKGRFTISRDNAKNTVYLQMKSLIQEDTAVYYCAADGSGYPGYSYPGKDYDDWGQGTQVNVSS”, which “polyreactivity (PSR sort gate)” value is on record?
Answer: low polyreactivity

Question: Which “polyreactivity (PSR sort gate)” value does the source give for “QVQLVESGGGLVQAGGSLRLSCAASGSTFYLNAMGWYRQAPGKERELVAAISRRGGSTYYADSVKGRFTISRDNAKNTVYLEMNSLKPDDTAVYYCNRARVYGYYAPFDYWGQGTQVTVSS” here?
Answer: high polyreactivity

Question: With “QVQLVESGGGLVQAGGSLRLSCAASGSTFYLNAMGWYRQAPGKERELVAAISSGGRTYYADSVKGRFTISRDNAKNTVYLQMNSLKPEDTAVYYCNAVRYLRGAYNYWGQGTQVTVSS” as the sequence, how does the “polyreactivity (PSR sort gate)” value read?
Answer: high polyreactivity

Question: With “QVQLVESGGGLVQAGGSLRLSCAASGSTFYLNAMGWYRQAPGKERELVAAISSSGGSKYYADSVKGRFTISRDNAKNTVYLQMNSLKPEDTAVYYCACSCFPAVSVYGGDYWGQGTQVTVSS” as the sequence, how does the “polyreactivity (PSR sort gate)” value read?
Answer: low polyreactivity

Question: With “QVQLVESGGGLVQAGGSLRLSCAASGSTFYLYAKGWYRQAPGKEREMVAAITGSGSRTYYADSVKGRFTISRDNAKNTVYLQMHSLNPEDTAVYYCAAKYGWQGGRGRDYWGQGTQVTVSS” as the sequence, how does the “polyreactivity (PSR sort gate)” value read?
Answer: high polyreactivity

Question: Which “polyreactivity (PSR sort gate)” value does the source give for “QVQLVESGGGLVQAGGSLRLSCAASGSTFYLYAMGWYRQAPGKERELVAAISWSGGDKYYADSVKGRFTISRDNAKNTVYLQMNSLKPEDTAVYYCAAEITDSYPGSPRRRDYWGQGTQVTVSS” here?
Answer: low polyreactivity

Question: With “QVQLVESGGGLVQAGGSLRLSCAASGSTFYLYTMGWYRQAPGKERELVAAINRSGGRTYYADSVKGRFTISRDNAKNTVYLQMNSLKPEDTAVYYCAADLASYAYRYDYWGQGTQVTVSS” as the sequence, how does the “polyreactivity (PSR sort gate)” value read?
Answer: high polyreactivity

Question: For “QVQLVESGGGLVQAGGSLRLSCAASGSTFYNAMGWYRQAPGKERELVAAITRSGGSTYYADSVKGRFTISRDNAKNTVYLQMNSLKPEDTAVYYCAAKSIIRPSAPRRDDMDYWGQGTQVTVSS”, which “polyreactivity (PSR sort gate)” value is on record?
Answer: low polyreactivity

Question: For “QVQLVESGGGLVQAGGSLRLSCAASGSTFYNNAMGWYRPAPGKERELVAAISSGGGTYYADSVKGRFTISRDNAKNTVYLQMNSLKPEDTAVYYCAAYFANTTHWGRIKRYDYWGQGTQVTVSS”, which “polyreactivity (PSR sort gate)” value is on record?
Answer: low polyreactivity

Question: For “QVQLVESGGGLVQAGGSLRLSCAASGSTFYNNAMGWYRQAPGKERESVAAITASGGRTYYADSVKGRFTISRDNAKNTVYLQMNSLKPEDTAVYYCAARGFDRYYWGQGTQVTVSS”, which “polyreactivity (PSR sort gate)” value is on record?
Answer: high polyreactivity

Question: With “QVQLVESGGGLVQAGGSLRLSCAASGSTFYNYVMGWYRQAPGKERELVAVINRSGTRTYYADSVKGRLTISRDNAKITVYLQMNSLKPEDTAVYYCNAELSYPGRYDSWGQGTQVTVSS” as the sequence, how does the “polyreactivity (PSR sort gate)” value read?
Answer: high polyreactivity

Question: For “QVQLVESGGGLVQAGGSLRLSCAASGSTFYPNAMGWYRQAPGKERELVAAITDSVGTTNYADSVKGRFTISRDNAKNTVYLQMNSLKPEDTAVYYCAKVKSYWNGYRYYYWGQGTQVTVSS”, which “polyreactivity (PSR sort gate)” value is on record?
Answer: low polyreactivity

Question: For “QVQLVESGGGLVQAGGSLRLSCAASGSTFYPYAMGWYRLAPGKERELVAVISSGGSTNYADSVKGRFTISRDNAKNTVYLQMNSLKPEDTAVYYCAADLAVYYIFLALEFNYWGQGTQVTVSS”, which “polyreactivity (PSR sort gate)” value is on record?
Answer: low polyreactivity

Question: With “QVQLVESGGGLVQAGGSLRLSCAASGSTFYPYAMGWYRQAPGKEREFVAAISGRGGSTFYADSVKGRFTISRDNAKNTVYIQMNSLKPEDTAVYYCAASVFKLVGYDYWGQGTQVTLSS” as the sequence, how does the “polyreactivity (PSR sort gate)” value read?
Answer: high polyreactivity

Question: With “QVQLVESGGGLVQAGGSLRLSCAASGSTFYPYAMGWYRQAPGKERELVAAISRIGSRTYYADSVKGRFTISRDNAKNTVYLQMNSLKPEDTAVYYCNASYVLTGQRYGYWGQGTQVTVSS” as the sequence, how does the “polyreactivity (PSR sort gate)” value read?
Answer: low polyreactivity

Question: For “QVQLVESGGGLVQAGGSLRLSCAASGSTFYPYAMGWYRQAPGKERELVAAISSGGSTSYADSVKGRFTISRDNAKNTVYLQMNSLKPEDTAVYYCNASSPGAVPVYDYDYWGQGTQVTVSS”, which “polyreactivity (PSR sort gate)” value is on record?
Answer: low polyreactivity

Question: With “QVQLVESGGGLVQAGGSLRLSCAASGSTFYPYAMGWYRQAPGKERELVAAISSGGSTYYADSVKGRFTISRDNAKNTVYLQMNSLKPQDTAVYYCAADFYYAYYWGQGTQVTVSS” as the sequence, how does the “polyreactivity (PSR sort gate)” value read?
Answer: low polyreactivity

Question: With “QVQLVESGGGLVQAGGSLRLSCAASGSTFYPYAMGWYRQAPGKERELVAAISYSGGSTYYADSVKGRFTISRDNAKNTVYLQMNSLKPEDSAVYYCAAYYRRQFTSYGNYYYWGQGTQVTLSS” as the sequence, how does the “polyreactivity (PSR sort gate)” value read?
Answer: high polyreactivity
